Article PMC3528738 (PLoS ONE, 2012)
Where no end group is shown, it is not given here.

Molecular target: T1, MPERp (HIV-1 (HXBc2 isolate), C-terminal carboxamide)
T1 construct: also called MPER peptide
Assay: cross-linking; peptides (10 µg) in solution incubated with 20 µM BS3 for 1 h at 37°C, TCA precipitation, Tricine SDS-PAGE; detection by Western blot with MAb2F5 or by NBD fluorescence in the gel
Conditions: both partners purified

T1 sequence (P03375 656-683): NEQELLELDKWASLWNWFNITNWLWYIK

B1: FPp (peptide)
peptide: AVGIGALFLGFLGAAGSTMGARSKKK-NH2
notes: HIV-1 gp160 (gp41 amino-terminal fusion peptide), HXBc2 isolate, residues 512-534; three lysines added at the C-terminus, not of gp160 (printed as 512-534-KKK); C-terminal KKK is added to the natural stretch; also called FP peptide; fusion peptide; source: synthetic peptide (solid-phase synthesis, Fmoc chemistry; purified by HPLC)
- binding result: binds
